Results from the supplement of paper PMC9170038.

Test system: K4 kissing-loop RNA reporter
Assay: apparent KD of K4 kissing-loop reporter; higher = weaker reporter binding
Conditions: Eterna round: R107; input ligand: FMN 200 uM
Protocol: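 RNA-MaP round R107: designed RNA switches with theophylline, tryptophan, arginine or FMN aptamers are transcribed on-chip within common flanks. They are titrated with a labelled K4 kissing-loop RNA reporter in RNA-MaP buffer (100 mM Tris pH 7.5, 80 mM KCl, 4 mM MgCl2), without ligand or with the indicated ligand. Median apparent KD per design.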
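Further: bound reporter read as fluorescence of individual clusters on recovered sequencing chips by microscopy, with normalized cluster intensities fitted with a binding model.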

Point of comparison: “UGGAGUUGACGAAAAGUCAACUCCUGAGAUACCAGUGACGAAAGUCACCCUUGGCAGCUCACUGCCAGUGAUGUUGGAAAUAAAA [#01 K4 Theophylline A Same State]”, “apparent KD of K4 kissing-loop reporter” value 346 nM. Against it:
- AGAGUUAUGCGAGGAUAUGCGGUUAGUACUCAAAGAGUACUAACGCAGAGUGAUGUUCUGUGAAACACAGAAGGCGCAUAACUCA [Omei KL FMN B SS B v1] — 2.5-fold higher, 854 nM
- AAGGACGGGACUUCCUCGCCGGAUAGAGAUACCAGCCCAGCAAUGGGCCCUUGGCAGCUCACUGACCUCAGUGAUGUUGAGGUUC [Arange] — within 1.5-fold, 289 nM
- UAGGAGUGAUGUUCCUUUAGCAGGUAGGAAGGAGCGCCCAUUUGGGCAGGUAGGUCGCCUACUGGCCCUGAGUUAAACCUUAGGC [#11 K4 Arginine A Same State] — 2.3-fold lower, 149 nM
- CGUAGCAGACGAAGGAGCGGCUACCUGAAUCAGGGUGAUGCCUGAGUGAUGUUCAGGUAAAGCCAGGUAGGUCGCGUCUGCUACG [Arg B Ex t9a] — 1.7-fold lower, 201 nM
- UGACUGGACUGAAGGAGCGCUGAACUCCUAGUGAUGUUAGGACAACGAGACAAAGUCUCGCGGCAGGUAGGUCGCAGUCUAGUCU — 2.2-fold lower, 159 nM
- UGUACCGAGUCAGGAUAUCAUAAAGUUGGAGUGAUGUUCCAAUAACGACUGACAAAGUCGGUCGAUUGAGAAGGGACUUGGUACU [FmnBS 9 #SwitchBubble #StaticStem] — 2.2-fold lower, 160 nM
- AGCUAGUACGCAGGAUAUCGAACAUCAUUUAGUGAGAUCGAGUGAUGUUCGAUCACGUCUUCAGUUCGAGAAGGGCGUACUAGCA [#01 K4 FMN B Same State] — within 1.5-fold, 349 nM
- UGAGGAGAUUAUGAUACCAGCAGAGAGAGAGAGGAAGUAUAGUGAUGUUAUAUGAGAUAAUGCCCUUGGCAGCAUAAGAAGAAGG [#20 K4 Theophylline B Same State] — 1.9-fold lower, 182 nM
- AAGUGAUGUUGUAGUGAUGUUGUGAUGUUGCAGGAUAUAUAGUGAUGUAGAAGGGUAAGUACUGAUUUUUUUUGUGAGUGAUGUU [bbgvzrmullin] — 3.9-fold lower, 87.9 nM
- GGACGACAGUCGGCCGCCACUCACAGCAGCCAGUGAUGUUGGAUUGUAGCGGAGUGAUGUUUCGCGAGGACCGGGACUGCAGUCC [Same State Tryptophan B GF 14] — 1.8-fold lower, 190 nM
- AAUAUAGUGAUGUUAUAUAAGAAGGAGUUACGAGGACCGGUACGGCCGCCACUCGAAACGAGUGAGGAUUUGGGAGAUUGGGUUC [SSTryptA.L] — within 1.5-fold, 465 nM
- GACUGGUUAACAGAUACCAGCCACAAGCGUUGAGGCGGCGGUAAAGUGAUGUUUUAUAAAGGCCCUUGGCAGCUGACUAGUUCGU [theeternabot_exclusion_KL_Theo_B_28] — within 1.5-fold, 371 nM
- UGACUGGACUGAAGGAGCGUUGAAGGAGCGUAAGGAGUGAUGUUCCAUACAGGUAGGUCGCAGCAGGUAGGUCGCAGUCUAGUCU [ArgBS 26 #DoubleAptamer #SwitchBubble] — 1.7-fold lower, 204 nM
- AGACCACAAAGUGGUCAGUGUUCGCGGCAGCGAGGACCGGUACGGCCGCCACUCGCGAGUGAUGUUCGCGAGAGCCGCGAACACA [Omei KL Tryp A Exc A v8] — 4.2-fold lower, 82.7 nM
- CAUUCAGUGAUGUUGGAAGGCGAGCGGGAUACCAGCGGAGACUCACGCCCUUGGCAGCCCAUAUAUCCCAGGUAGAUAAUAGUUC [Same State - Theophylline A (Freestyle 5)] — within 1.5-fold, 276 nM
- GGAACUACGACGGCCGCCACUCUGUAUCCCAACGUUAAGGUCCUAACUGCAAGUGAUGUUUGUGCGAGGACCGGGUCUCCCUUGC [theeternabot_exclusion_KL_Trp_B_30] — within 1.5-fold, 258 nM
- AUGCGCGCGGCGGCCGCCACUCGCAUGAGAGUGAUGUUCUCACCGUGACCGUAAGGUCGCGGUGUGAGGACCGGGCCGGGCUGCG [#2 Same State - Tryptophan B Attempt #23 (HarryS)] — 12-fold lower, 28.4 nM
- CUGGGUUGACGAAAAGUCAACAAAAGAGAAGGAGCGCACGAAAGUGCAGGUAGGUCGCUCAUCCAGUGAUGUUGGAUCAUCCAGA [#SwitchBubble 16 #K4Late] — within 1.5-fold, 345 nM
- UGUCAUUGGUCGGCCGCCACUCCGUAACGAGUGAUGUUCUAAAAGACGGAUCGAAAGAUCUGUCGGAGGACCGGGACCGAUGACU [FiskerMod 7 - Jieux - Same State - Tryptophan B] — 2.1-fold higher, 725 nM
- UGUACCGAGUCAGGAUAUGUCGUCGAAAGACGAAUCCUAGUGAUGUUAGGGAUCUGCGAAAGCAGUGCAGAAGGGACUUGGUACU [FmnBS 26 U20+G67] — within 1.5-fold, 235 nM
- CUAUGGAAACAUAGUGAUCGGGAAACCGAUACCAGUAUGGAAACAUACCCUUGGCAGCGGAAUGAUCAAACGGAGUGAUGUUCCG [Theophylline A K4 21] — within 1.5-fold, 459 nM
- CCAUCGCUAUUCGAUACCAGCUCCUUAGUGAUGUUAAGGUUUUACCCACUGUAGGUGGGAAGCCCUUGGCAGCGAAUAGUGAUGG [Theophylline B K4 28] — 2.8-fold higher, 982 nM
- GGUAGCAUGGCGGCCGCCACUCUUCAUUAGUGAUGUUAAUGCCGAGUGCGCUAACUCCGCCAGGAGAGGACCGGGCCAUGCUACC — within 1.5-fold, 397 nM
- AGAACUGUCUGAGAUACCAGCUAAGGAGUGAUGUUCCUAGCUCCACGAAAGUGGAGCCAUAGCCCUUGGCAGCUCAGACAGUUCA [Omei KL Theo B SS A v6] — 2.5-fold higher, 866 nM
- GCAGUGAUGUUGCACGAGUAGGGUAGAGUGCGAGGACCGGUACGGCCGCCACUCGUAUGGAACUCGCUAAUUUAUGGAAUGGUGA [whbob_SS_tryp_A] — 2.3-fold higher, 791 nM
- UGCAUCGUUGGCAGGCGCACCACACAGUGUAAGGAUAUGAUGUCGUUCAGAAGGUACGCUUGACCGAGUGAUGUUCGGGAGUGCC [theeternabot_sameState_KL_FMN_A_9] — 1.5-fold lower, 224 nM
- GGAGUUACCUGGGAUACCAGUCGGAGUCUCAGAGCACAGAGUGAUGUUCUGGGAUGUUUCGGCCCUUGGCAGCUCUGGGACUCCA [#2 Exclusion - Theophylline B Attempt #14 (HarryS)] — within 1.5-fold, 386 nM
- AGCGAGAUACUUGUCUAGUAUACUACAGAUACCAGACAAGUACUAGUCCCUUGGCAGCUGUAGAUCGAGUGAUGUUCGAGUCGCU [Theo A SS t1] — 1.5-fold higher, 527 nM
- UGUAUGUGAUUUGAUACCAGACCAUCUUGUGAGAAAUGAGUGAUGUUUAUUUUGGUUUGGGUCCCUUGGCAGCAAAUCGCAUACU [KL-SSTheoB24] — within 1.5-fold, 507 nM
- AACAUUUUCAGAAGGAGCGUGAAUUAUUCAUAAUUAUAUUAUACGAGUGAUGUUCGUAUUUCACAGGUAGGUCGCUGAUAUAUUA [JR_SSArginiB_Sub001] — 3.1-fold lower, 113 nM

Same assay, conditions: Eterna round: R107; input ligand: arginine 13.2 mM

Point of comparison: “CGUAGCAGACGAAGGAGCGGCUACCUGAAUCAGGGUGAUGCCUGAGUGAUGUUCAGGUAAAGCCAGGUAGGUCGCGUCUGCUACG [Arg B Ex t9a]”, “apparent KD of K4 kissing-loop reporter” value 203 nM. Against it:
- AGAGUUAUGCGAGGAUAUGCGGUUAGUACUCAAAGAGUACUAACGCAGAGUGAUGUUCUGUGAAACACAGAAGGCGCAUAACUCA [Omei KL FMN B SS B v1] — within 1.5-fold, 160 nM
- AAGGACGGGACUUCCUCGCCGGAUAGAGAUACCAGCCCAGCAAUGGGCCCUUGGCAGCUCACUGACCUCAGUGAUGUUGAGGUUC [Arange] — the same, 203 nM
- UAGGAGUGAUGUUCCUUUAGCAGGUAGGAAGGAGCGCCCAUUUGGGCAGGUAGGUCGCCUACUGGCCCUGAGUUAAACCUUAGGC [#11 K4 Arginine A Same State] — within 1.5-fold, 181 nM
- UGGAGUUGACGAAAAGUCAACUCCUGAGAUACCAGUGACGAAAGUCACCCUUGGCAGCUCACUGCCAGUGAUGUUGGAAAUAAAA [#01 K4 Theophylline A Same State] — within 1.5-fold, 182 nM
- UGACUGGACUGAAGGAGCGCUGAACUCCUAGUGAUGUUAGGACAACGAGACAAAGUCUCGCGGCAGGUAGGUCGCAGUCUAGUCU — 1.7-fold lower, 119 nM
- UGUACCGAGUCAGGAUAUCAUAAAGUUGGAGUGAUGUUCCAAUAACGACUGACAAAGUCGGUCGAUUGAGAAGGGACUUGGUACU [FmnBS 9 #SwitchBubble #StaticStem] — within 1.5-fold, 139 nM
